From paper PMC6100724 (2018) come the findings set out here.

The assay deals with Scribble PDZ1 (His-tagged, aa 719-829) (human, UniProt Q14160 719-829). As to the kind of experiment: ITC. A general note: ITC needs no label: the signal is the heat of the interaction.
Sequence of Scribble PDZ1 (His-tagged, aa 719-829) (Q14160 719-829): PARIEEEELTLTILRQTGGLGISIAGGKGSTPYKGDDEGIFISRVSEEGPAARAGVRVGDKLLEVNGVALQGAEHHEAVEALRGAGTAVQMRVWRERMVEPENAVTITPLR

The term Kd denotes a measure of binding affinity in units of concentration. A higher Kd goes with a looser complex. ARVSKETPL [ARVSKETPL (MAPK12 peptide, unphosphorylated)] gave a Kd of 1600 nM.
